Measurements: patent publication US20230340127A1 (SANFORD BURNHAM PREBYS MEDICAL DISCOVERY INSTITUTE, published 2023)

B1: CUL4B (endogenous) (other, UniProt Q13620 1-913, looked up)
chain: MMSQSSGSGDGNDDEATTSKDGGFSSPSPSAAAAAQEVRSATDGNTSTTPPTSAKKRKLNSSSSSSSNSSNEREDFDSTSSSSSTPPLQPRDSASPSTSSFCLGVSVAASSHVPIQKKLRFEDTLEFVGFDAKMAEESSSSSSSSSPTAATSQQQQLKNKSILISSVASVHHANGLAKSSTTVSSFANSKPGSAKKLVIKNFKDKPKLPENYTDETWQKLKEAVEAIQNSTSIKYNLEELYQAVENLCSYKISANLYKQLRQICEDHIKAQIHQFREDSLDSVLFLKKIDRCWQNHCRQMIMIRSIFLFLDRTYVLQNSMLPSIWDMGLELFRAHIISDQKVQNKTIDGILLLIERERNGEAIDRSLLRSLLSMLSDLQIYQDSFEQRFLEETNRLYAAEGQKLMQEREVPEYLHHVNKRLEEEADRLITYLDQTTQKSLIATVEKQLLGEHLTAILQKGLNNLLDENRIQDLSLLYQLFSRVRGGVQVLLQQWIEYIKAFGSTIVINPEKDKTMVQELLDFKDKVDHIIDICFLKNEKFINAMKEAFETFINKRPNKPAELIAKYVDSKLRAGNKEATDEELEKMLDKIMIIFRFIYGKDVFEAFYKKDLAKRLLVGKSASVDAEKSMLSKLKHECGAAFTSKLEGMFKDMELSKDIMIQFKQYMQNQNVPGNIELTVNILTMGYWPTYVPMEVHLPPEMVKLQEIFKTFYLGKHSGRKLQWQSTLGHCVLKAEFKEGKKELQVSLFQTLVLLMFNEGEEFSLEEIKQATGIEDGELRRTLQSLACGKARVLAKNPKGKDIEDGDKFICNDDFKHKLFRIKINQIQMKETVEEQASTTERVFQDRQYQIDAAIVRIMKMRKTLSHNLLVSEVYNQLKFPVKPADLKKRIESLIDRDYMERDKENPNQYNYIA
notes: also called CRL4 component
B2: FBXO44 (endogenous F-box protein FBXO44) (other, human, UniProt Q9H4M3 1-255, looked up)
chain: MAVGNINELPENILLELFTHVPARQLLLNCRLVCSLWRDLIDLVTLWKRKCLREGFITEDWDQPVADWKIFYFLRSLHRNLLHNPCAEEGFEFWSLDVNGGDEWKVEDLSRDQRKEFPNDQVKKYFVTSYYTCLKSQVVDLKAEGYWEELMDTTRPDIEVKDWFAARPDCGSKYQLCVQLLSSAHAPLGTFQPDPATIQQKSDAKWREVSHTFSNYPPGVRYIWFQHGGVDTHYWAGWYGPRVTNSSITIGPPLP
notes: Endogenous protein in cell lysates or chromatin fractions; also called FBX044

Legend:
DDB1 (endogenous) = target: T1, DDB1 (endogenous) (UniProt Q16531 2-1140); experiment: co-IP of endogenous CUL4B with DDB1 (anti-CUL4B antibody), control vs FBXO44 KD cells (FIG. 3G)
T1 construct: also called CRL4 component
Method: (§1) Immunoprecipitation or co-immunoprecipitation (IP or co-IP): for IP, cells were lysed in IP buffer (50 mM Tris-HCl [pH 7.4], 125 mM NaCl, 1 mM EDTA, 0.1% Triton X-100) with inhibitors (50 mM NaF, 1 mM PMSF, 1 mM Na₃VO₄, 1 μg/mL Aprotinin, 1 μg/mL Leupeptin, 1 μg/mL Pepstatin) followed by sonication and centrifugation to clear insoluble debris. Lysates were then incubated with protein G agarose beads and IgG antibody of the same species as the IP antibody for 2 hr at 4° C. to reduce non-specific binding. The cleared lysates were then incubated with IP antibody overnight at 4° C. Specifically, for Flag IP, 5 μg of anti-Flag antibody (Sigma-Aldrich no. F7425) was used for 2500 μg of protein lysate. For Myc IP, anti-Myc antibody (Cell Signaling Technology no. 2276) was used at 1:1000 dilution. For FBXO44 IP, 5 μL of anti-FBXO44 antibody (Sigma-Aldrich no. HPA003363) was used for 10⁶ cells. Beads were washed with IP buffer, boiled in 1×SDS gel loading buffer, and subjected to electrophoresis.
(§2) Next, to characterize FBXO44's molecular interactions with interactions with SUV39H1, CRL4RBBP4/7, and Mi-2/NuRD, Co-IP experiments were performed as described in example 3. For SUV39H1 IP, anti-SUV39H1 antibody (Millipore no. 05-615) was used at 1:100 dilution. For CUL4B IP, 2 μg of anti-CUL4B antibody (Proteintech no. 12916-1-AP) was used for 2500 μg of protein lysate. […]

CUL1 (endogenous) = CUL1 (endogenous) (UniProt Q13616 1-776); experiment: IP from chromatin fractions, immunoblot (FIG. 1F)
Flag-Histone H3.1 = Flag-Histone H3.1 (UniProt P68431 1-136); experiment: co-IP of endogenous FBXO44 with Flag-Histone H3.1 or H3.3 (FIG. 5B)
Method: as §1

RBBP4 (endogenous) = target: T2, RBBP4 (endogenous) (UniProt Q09028 2-425); experiment: co-IP of endogenous FBXO44 in MDA-MB-231 cells, immunoblot (FIG. 4A)
T2 construct: also called DCAF RBBP4

RBBP7 (endogenous) = target: T3, RBBP7 (endogenous) (UniProt Q16576 2-425); experiment: as above
T3 construct: also called DCAF RBBP7

GATAD2B (endogenous) = target: T4, GATAD2B (endogenous) (UniProt Q8WXI9 1-593); experiment: co-IP of endogenous FBXO44, control vs SUV39H1 KD (FIG. 3I; its legend names GATAD2A)
T4 construct: also called Mi-2/NuRD component
Method: as §1, §2

CUL4B (endogenous) = target: B1; experiment: co-IP of endogenous FBXO44 in MDA-MB-231 cells, immunoblot; CRL4 components named CUL4A/CUL4B in the legend of FIG. 4A

Measured: binding result

Sequence of CUL1 (endogenous) (Q13616 whole entry): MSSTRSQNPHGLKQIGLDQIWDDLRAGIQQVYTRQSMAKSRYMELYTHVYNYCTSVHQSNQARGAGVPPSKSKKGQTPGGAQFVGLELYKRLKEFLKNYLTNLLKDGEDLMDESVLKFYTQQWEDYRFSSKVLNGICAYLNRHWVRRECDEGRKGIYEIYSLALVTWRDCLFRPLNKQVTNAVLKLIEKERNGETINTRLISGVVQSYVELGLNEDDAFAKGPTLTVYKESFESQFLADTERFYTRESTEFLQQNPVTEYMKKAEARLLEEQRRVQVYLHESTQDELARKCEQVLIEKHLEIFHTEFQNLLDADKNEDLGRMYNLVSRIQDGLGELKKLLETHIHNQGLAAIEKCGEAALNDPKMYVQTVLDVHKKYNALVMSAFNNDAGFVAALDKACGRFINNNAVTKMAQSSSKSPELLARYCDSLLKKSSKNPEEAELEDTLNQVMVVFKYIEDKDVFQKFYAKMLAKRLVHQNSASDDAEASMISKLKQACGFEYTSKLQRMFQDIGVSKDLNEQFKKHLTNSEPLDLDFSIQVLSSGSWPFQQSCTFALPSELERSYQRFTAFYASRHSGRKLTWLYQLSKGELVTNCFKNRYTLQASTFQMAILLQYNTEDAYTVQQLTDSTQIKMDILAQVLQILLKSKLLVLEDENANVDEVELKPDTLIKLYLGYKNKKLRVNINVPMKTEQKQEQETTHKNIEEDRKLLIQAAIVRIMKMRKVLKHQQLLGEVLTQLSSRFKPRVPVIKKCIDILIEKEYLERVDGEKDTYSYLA
T2 sequence (Q09028 2-425 limits assumed): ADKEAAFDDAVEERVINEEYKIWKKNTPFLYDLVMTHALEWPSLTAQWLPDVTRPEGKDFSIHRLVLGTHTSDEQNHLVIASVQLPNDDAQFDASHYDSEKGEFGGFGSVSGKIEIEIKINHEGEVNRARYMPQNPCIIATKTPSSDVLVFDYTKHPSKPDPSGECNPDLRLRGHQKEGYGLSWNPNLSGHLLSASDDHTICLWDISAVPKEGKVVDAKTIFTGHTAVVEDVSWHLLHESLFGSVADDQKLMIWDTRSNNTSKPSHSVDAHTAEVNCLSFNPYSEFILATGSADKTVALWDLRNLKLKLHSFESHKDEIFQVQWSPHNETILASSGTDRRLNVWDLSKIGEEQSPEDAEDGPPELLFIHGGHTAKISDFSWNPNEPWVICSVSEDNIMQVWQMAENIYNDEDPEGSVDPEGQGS
T4 sequence (Q8WXI9 whole entry): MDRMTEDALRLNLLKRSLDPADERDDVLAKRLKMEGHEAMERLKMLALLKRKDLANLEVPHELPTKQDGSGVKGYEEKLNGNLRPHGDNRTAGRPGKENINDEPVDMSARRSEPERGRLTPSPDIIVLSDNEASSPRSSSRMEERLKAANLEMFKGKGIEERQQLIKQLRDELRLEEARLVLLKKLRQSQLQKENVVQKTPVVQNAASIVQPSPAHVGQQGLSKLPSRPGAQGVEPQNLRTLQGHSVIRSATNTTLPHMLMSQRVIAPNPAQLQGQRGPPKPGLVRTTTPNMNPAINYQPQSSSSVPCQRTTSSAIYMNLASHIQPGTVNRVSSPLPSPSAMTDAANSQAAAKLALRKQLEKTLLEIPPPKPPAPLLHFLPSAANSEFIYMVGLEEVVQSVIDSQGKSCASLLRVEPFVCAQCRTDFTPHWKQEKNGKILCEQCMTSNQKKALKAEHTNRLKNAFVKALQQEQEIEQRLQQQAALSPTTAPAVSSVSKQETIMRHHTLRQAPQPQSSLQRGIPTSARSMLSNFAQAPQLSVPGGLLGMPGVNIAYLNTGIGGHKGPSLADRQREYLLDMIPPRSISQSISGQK
T1 sequence (Q16531 2-1140 limits assumed): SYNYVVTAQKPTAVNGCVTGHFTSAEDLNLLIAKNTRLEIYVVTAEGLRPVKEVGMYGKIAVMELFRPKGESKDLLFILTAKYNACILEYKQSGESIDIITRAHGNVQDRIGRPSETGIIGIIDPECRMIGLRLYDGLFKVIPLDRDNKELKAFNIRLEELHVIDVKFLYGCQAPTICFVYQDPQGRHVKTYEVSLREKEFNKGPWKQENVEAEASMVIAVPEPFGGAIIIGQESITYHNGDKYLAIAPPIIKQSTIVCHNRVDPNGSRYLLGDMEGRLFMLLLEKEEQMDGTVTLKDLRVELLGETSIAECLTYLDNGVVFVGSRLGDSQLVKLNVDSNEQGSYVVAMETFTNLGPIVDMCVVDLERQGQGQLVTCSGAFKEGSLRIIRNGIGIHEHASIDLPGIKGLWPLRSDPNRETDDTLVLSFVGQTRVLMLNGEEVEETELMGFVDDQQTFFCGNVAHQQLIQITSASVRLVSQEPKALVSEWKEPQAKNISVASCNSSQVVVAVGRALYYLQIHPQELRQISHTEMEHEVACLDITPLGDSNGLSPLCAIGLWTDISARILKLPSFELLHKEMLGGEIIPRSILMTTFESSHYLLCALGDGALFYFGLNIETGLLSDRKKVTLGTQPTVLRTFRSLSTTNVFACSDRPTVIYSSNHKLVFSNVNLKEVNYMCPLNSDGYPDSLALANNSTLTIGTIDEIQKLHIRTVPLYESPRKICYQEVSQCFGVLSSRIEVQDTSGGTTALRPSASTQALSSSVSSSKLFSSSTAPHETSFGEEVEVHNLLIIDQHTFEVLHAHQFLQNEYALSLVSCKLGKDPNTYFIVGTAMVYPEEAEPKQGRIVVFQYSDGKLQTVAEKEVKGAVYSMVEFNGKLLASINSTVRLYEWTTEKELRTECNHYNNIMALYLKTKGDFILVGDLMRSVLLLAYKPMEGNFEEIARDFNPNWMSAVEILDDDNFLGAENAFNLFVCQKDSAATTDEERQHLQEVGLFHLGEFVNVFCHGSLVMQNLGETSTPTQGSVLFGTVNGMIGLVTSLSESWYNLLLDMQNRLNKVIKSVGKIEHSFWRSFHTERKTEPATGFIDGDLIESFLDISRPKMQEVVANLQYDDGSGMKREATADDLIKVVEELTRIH
T3 sequence (Q16576 2-425 limits assumed): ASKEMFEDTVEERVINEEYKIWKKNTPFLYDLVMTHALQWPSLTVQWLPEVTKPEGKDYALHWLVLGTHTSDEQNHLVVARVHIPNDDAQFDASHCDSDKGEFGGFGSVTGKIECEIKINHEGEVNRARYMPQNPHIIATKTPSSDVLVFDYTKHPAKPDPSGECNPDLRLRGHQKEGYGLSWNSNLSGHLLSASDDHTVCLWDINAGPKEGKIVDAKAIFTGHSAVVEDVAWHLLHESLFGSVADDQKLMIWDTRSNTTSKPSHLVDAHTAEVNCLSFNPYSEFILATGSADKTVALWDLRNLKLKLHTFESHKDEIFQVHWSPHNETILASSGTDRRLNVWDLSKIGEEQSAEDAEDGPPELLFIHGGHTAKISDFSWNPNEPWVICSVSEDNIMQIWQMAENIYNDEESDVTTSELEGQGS

B1
binds: DDB1 (endogenous)

B2
not listed: DDB1 (endogenous)
binds: all other assays above
